Values quoted from earlier work, collected in article PMC10582360, “A nanoparticle platform for combined mucosal healing and immunomodulation in inflammatory bowel disease treatment” (Bioactive materials, 2023).

Tested on: dipeptidyl peptidase IV (DPP-IV)
Conditions: ref [4]
Excerpt: Teduglutide, a GLP-2 analog with prolonged half-life, is commercialized as a daily subcutaneous injection (Gattex®, Revestive®) for its use in short bowel syndrome (SBS) in patients who are dependent on parenteral support. A second long-acting GLP-2 analog, glepaglutide (Zealand Pharma), has just ...

## Glucagon-like peptide 2 [GLP-2]
  cleavage by DPP-IV: rapidly cleaved
